Assay results: PMC8202955, “The nonreceptor tyrosine kinase SRMS inhibits autophagy and promotes tumor growth by phosphorylating the scaffolding protein FKBP51” (PLoS Biology, 2021)
pIC50: −log10 of the molar value.

Legend:
[1] = target: T1, SRMS (Src-related kinase lacking C-terminal regulatory tyrosine and N-terminal myristylation sites) (Homo sapiens, UniProt Q9H3Y6); assay: peptide substrate mobility shift kinase assay with purified recombinant kinase domain ([…] SRMS, […] ATP); format: biochemical
T1 construct: human SRMS kinase domain (residues 221 to 486)

[2] = phosphorylation at Y54

T1 sequence (Q9H3Y6 221-486): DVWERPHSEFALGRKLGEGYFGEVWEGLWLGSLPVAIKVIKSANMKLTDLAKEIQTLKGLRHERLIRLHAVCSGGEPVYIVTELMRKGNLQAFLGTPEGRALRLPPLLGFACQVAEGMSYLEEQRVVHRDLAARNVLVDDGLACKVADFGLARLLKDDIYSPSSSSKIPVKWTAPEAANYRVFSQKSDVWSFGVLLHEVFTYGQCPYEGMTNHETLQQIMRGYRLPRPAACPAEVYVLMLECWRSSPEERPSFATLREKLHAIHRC

With `C=CC(=O)N1CCC[C@@H](n2nc(-c3ccc(Oc4ccccc4)cc3)c3c(N)ncnc32)C1` [ibrutinib] the pIC50 [1] was 7.48.
In the case of FKBP51: SRMS knockout (CRISPR/Cas9), the degradation_or_half_life [2] was “decreases”.
For FKBP51: ibrutinib (SRMS inhibitor), the degradation_or_half_life [2] was “decreases”.
